Laboratory results from patent publication US20200123268A1 (UNIVERSIT DEGLI STUDI MAGNA GRAECIA CATANZARO, published 2020).
Where a chain is given by its changes, count along the chain named.

T1: CD43 #8 (CD43 aa 1-400 with T69N), expressed in HEK293T cells (human, UniProt P16150 20-400)
T1 construct: also called CD43 Clone #8; not shown: His tag from the vector pLenti-CMV-(insert)-Histag-GFP-2A-Puro
T1 sequence: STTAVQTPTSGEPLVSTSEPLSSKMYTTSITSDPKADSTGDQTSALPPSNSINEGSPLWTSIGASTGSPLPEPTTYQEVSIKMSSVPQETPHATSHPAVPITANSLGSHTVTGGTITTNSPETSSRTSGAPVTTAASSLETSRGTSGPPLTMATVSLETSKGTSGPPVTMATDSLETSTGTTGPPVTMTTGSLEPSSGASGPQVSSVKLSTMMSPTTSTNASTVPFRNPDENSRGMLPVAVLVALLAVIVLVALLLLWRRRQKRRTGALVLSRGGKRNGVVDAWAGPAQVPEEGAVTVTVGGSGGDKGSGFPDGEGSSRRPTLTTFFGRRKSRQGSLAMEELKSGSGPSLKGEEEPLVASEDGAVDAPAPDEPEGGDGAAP

T2: CD43 #7 (CD43 with deletion of aa 69), expressed in HEK293T cells (human, UniProt P16150 20-400)
T2 construct: also called CD43 Clone #7; not shown: His tag from the vector pLenti-CMV-(insert)-Histag-GFP-2A-Puro
T2 sequence: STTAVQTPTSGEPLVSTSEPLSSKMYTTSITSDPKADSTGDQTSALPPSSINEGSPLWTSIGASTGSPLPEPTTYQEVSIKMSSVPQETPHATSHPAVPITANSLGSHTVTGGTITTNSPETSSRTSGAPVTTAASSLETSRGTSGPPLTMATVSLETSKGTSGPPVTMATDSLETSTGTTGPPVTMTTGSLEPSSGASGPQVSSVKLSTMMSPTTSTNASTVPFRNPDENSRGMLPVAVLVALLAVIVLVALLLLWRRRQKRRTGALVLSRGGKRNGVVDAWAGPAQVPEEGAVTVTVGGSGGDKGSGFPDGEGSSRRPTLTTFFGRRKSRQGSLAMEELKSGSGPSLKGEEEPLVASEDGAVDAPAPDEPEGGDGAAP

T3: CD43 #6 (CD43 with deletion of aa 64 to 78), expressed in HEK293T cells (human, UniProt P16150 20-400)
T3 construct: also called CD43 Clone #6; not shown: His tag from the vector pLenti-CMV-(insert)-Histag-GFP-2A-Puro
T3 sequence: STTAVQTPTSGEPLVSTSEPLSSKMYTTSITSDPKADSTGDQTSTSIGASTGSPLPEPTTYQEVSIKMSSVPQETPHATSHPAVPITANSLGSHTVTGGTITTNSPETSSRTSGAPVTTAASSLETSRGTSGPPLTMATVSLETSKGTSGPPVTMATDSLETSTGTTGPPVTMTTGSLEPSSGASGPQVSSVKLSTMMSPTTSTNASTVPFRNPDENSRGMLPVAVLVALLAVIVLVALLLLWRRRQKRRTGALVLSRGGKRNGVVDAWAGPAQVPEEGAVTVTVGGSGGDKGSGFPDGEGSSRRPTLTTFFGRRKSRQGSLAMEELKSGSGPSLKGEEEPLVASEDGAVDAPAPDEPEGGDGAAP

T4: CD43 #5 (truncated CD43, aa 91-400), expressed in HEK293T cells (human, UniProt P16150 91-400)
T4 construct: also called CD43 Clone #5; not shown: His tag from the vector pLenti-CMV-(insert)-Histag-GFP-2A-Puro
T4 sequence: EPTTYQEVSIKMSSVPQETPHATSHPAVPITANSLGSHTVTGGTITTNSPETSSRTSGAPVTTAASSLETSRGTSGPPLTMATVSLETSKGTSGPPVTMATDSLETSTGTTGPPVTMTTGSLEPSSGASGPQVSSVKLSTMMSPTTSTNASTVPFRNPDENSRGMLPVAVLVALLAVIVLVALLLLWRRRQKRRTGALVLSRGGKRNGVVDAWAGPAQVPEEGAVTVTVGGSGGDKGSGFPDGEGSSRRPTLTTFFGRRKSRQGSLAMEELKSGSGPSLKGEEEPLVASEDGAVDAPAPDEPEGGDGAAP

T5: human CD43, endogenous, on primary cells and cell lines that carry the UMG1 epitope (human, UniProt P16150 20-400, native glycosylation of the cell concerned)
T5 construct: also called UMG1 antigen; the target
T5 sequence: T1 sequence with N50T

B1: h-UMG1-PE (phycoerythrin-conjugated h-UMG1) (antibody, human IgG1, kappa, V domains shown)
VH: EVQLVESGGGLVQPGGSLRLSCVASGFTFSSFGMHWVRQAPGKGLEWVAYISSGSGNFYYVDTVKGRFTISRDNAKNSLYLQMNSLRAEDTAVYYCARSTYYHGSRGAMDYWGQGTLVTVSS
VL: QVVMTQSPAFLSVTPGEKVTITCSASSSVSSMYWYQLKPDQAPKLLIYDTSKMASGVPIRFSGSGSGTDFTFTVSSVEAEDAATYYCQQWSSYPPITFGGGTKVEIKR
modifications: phycoerythrin conjugate, site not stated
notes: also called h-UMG1-PE conjugated antibody
B2: ch-UMG1 (chimeric antibody: murine UMG1 variable regions on human IgG1 constant regions) (antibody, V domains shown)
VH: DVQLVESGGGLVQPGGSRKLSCVASGFTFSSFGMHWVRQAPEKGLEWVAYISSGSGNFYYVDTVKGRFTISRDNPKNTLFLQMTSLRSEDTAMYYCARSTYYHGSRGAMDYWGQGTSVTVSS
VL: QIALTQSPAIMSASPGEKVTMTCSASSSVSSMYWYQLKPGSSPRLLIYDTSKMASGVPIRFSGSGSGTSFSLTVSRVEAEDAATYYCQQWSSYPPITFGAGSKLELKR
notes: also called chimeric mAb ch-UMG1; chimeric mAb
B3: humanized UMG1 antibody H3-L1 (VH3 + VL1) (antibody, IgG1, V domains shown)
VH: B1 VH
VL: EIVLTQSPATLSLSPGERATLSCSASSSVSSMYWYQQKPGLAPRLLIYDTSKMASGIPDRFSGSGSGTDFTLTISRLEPEDFAVYYCQQWSSYPPITFGQGTRLEIK
notes: The label follows the pattern H3-L4
B4: humanized UMG1 antibody H1-L1 (VH1 + VL1) (antibody, IgG1, V domains shown)
VH: B1 VH with V23A, A49S
VL: B3 VL
notes: as for B3
B5: humanized UMG1 antibody H1-L2 (VH1 + VL2) (antibody, IgG1, V domains shown)
VH: B1 VH with V23A, A49S
VL: B3 VL with V3A, Q37L, D59I, I74V, L77V
notes: as for B3
B6: humanized UMG1 antibody H2-L1 (VH2 + VL1) (antibody, IgG1, V domains shown)
VH: B1 VH with A49S
VL: B3 VL
notes: as for B3
B7: humanized UMG1 antibody H2-L2 (VH2 + VL2) (antibody, IgG1, V domains shown)
VH: B1 VH with A49S
VL: B3 VL with V3A, Q37L, D59I, I74V, L77V
notes: as for B3
B8: humanized UMG1 antibody H3-L2 (VH3 + VL2) (antibody, IgG1, V domains shown)
VH: B1 VH
VL: B3 VL with V3A, Q37L, D59I, I74V, L77V
notes: as for B3
B9: humanized UMG1 antibody H4-L1 (VH4 + VL1) (antibody, IgG1, V domains shown)
VH: B1 VH with E1Q, L11V, A75S, S78T
VL: B3 VL
notes: as for B3
B10: humanized UMG1 antibody H4-L2 (VH4 + VL2) (antibody, IgG1, V domains shown)
VH: B1 VH with E1Q, L11V, A75S, S78T
VL: B3 VL with V3A, Q37L, D59I, I74V, L77V
notes: as for B3
B11: humanized UMG1 antibody H3-L3 (VH3 + VL3) (antibody, IgG1, V domains shown)
VH: B1 VH
VL: QVVMTQSPAFLSVTPGEKVTITCSASSSVSSMYWYQQKPDQAPKLLIYDTSKMASGVPSRFSGSGSGTDFTFTISSLEAEDAATYYCQQWSSYPPITFGGGTKVEIK
notes: as for B3
B12: humanized UMG1 antibody H1-L3 (VH1 + VL3) (antibody, IgG1, V domains shown)
VH: B1 VH with V23A, A49S
VL: B11 VL
notes: as for B3
B13: humanized UMG1 antibody H1-L4 (VH1 + VL4) (antibody, IgG1, V domains shown)
VH: B1 VH with V23A, A49S
VL: B11 VL with Q37L, S59I, I74V, L77V
notes: as for B3
B14: humanized UMG1 antibody H2-L3 (VH2 + VL3) (antibody, IgG1, V domains shown)
VH: B1 VH with A49S
VL: B11 VL
notes: as for B3
B15: humanized UMG1 antibody H2-L4 (VH2 + VL4) (antibody, IgG1, V domains shown)
VH: B1 VH with A49S
VL: B11 VL with Q37L, S59I, I74V, L77V
notes: as for B3
B16: humanized UMG1 antibody H4-L3 (VH4 + VL3) (antibody, IgG1, V domains shown)
VH: B1 VH with E1Q, L11V, A75S, S78T
VL: B11 VL
notes: as for B3
B17: humanized UMG1 antibody H4-L4 (VH4 + VL4) (antibody, IgG1, V domains shown)
VH: B1 VH with E1Q, L11V, A75S, S78T
VL: B11 VL with Q37L, S59I, I74V, L77V
notes: as for B3

Experiments:
[1] = target: T1, CD43 #8 (CD43 aa 1-400 with T69N), …; experiment: flow cytometry on transfected HEK293T cells, 1 ug/ml h-UMG1-PE, percent positive among GFP positive cells
Method: (§1) Each vector was transiently expressed in HEK293T cells by using Lipofectamine LTX (Thermo Fisher Scientific, MA, USA) according to the manufacturer's protocol. HEK293T cells were maintained at 37° C. and 5% CO₂ in DMEM supplemented with 10% FBS and 1% penicillin/streptomycin (ThermoFisher Scientific, MA, USA). 72 h after transfection, cells were subjected to western blot or flow cytometry (FACS) analysis.
(§2) Samples were acquired by flow cytometry (LSRFortessa™ X-20, BD) and analyzed by DIVA software (BD FACSDiva™ software). A minimum of 20,000 events were gated for each measurement.

[2] = target: T2, CD43 #7 (CD43 with deletion of aa 69), …; experiment: as above
Method: as §1, §2

[3] = target: T3, CD43 #6 (CD43 with deletion of aa 64 to …); experiment: flow cytometry on transfected HEK293T cells, percent h-UMG1-PE positive among GFP positive cells
Method: as §1, §2

[4] = target: T4, CD43 #5 (truncated CD43, aa 91-400), …; experiment: as above
Method: as §1, §2

[5] = target: T5, human CD43, endogenous, on primary …; experiment: flow cytometry, antibody at 1 ug/ml, FITC mouse anti-human IgG secondary; cell line of the histograms not labelled (HPB-ALL or H9)
Method: (§3) Each screening was performed twice, for a total of 4 replicates.

[6] = target: T5, human CD43, endogenous, on primary …; experiment: flow cytometry, antibody at 1 ug/ml, FITC mouse anti-human IgG secondary; histogram grid, cell line not labelled (HPB-ALL or H9)
Method: as §3

Binder | binding result [6] | further results
B1 |  | binding result [1]: binds; binding result [2]: binds; binding result [3]: no binding (tested: 1 ug/ml); binding result [4]: no binding (tested: 1 ug/ml)
B2 |  | binding result [5]: binds
B3 | binds | 
B4 | binds | 
B5 | binds | 
B6 | binds | 
B7 | binds | 
B8 | binds | 
B9 | binds | 
B10 | binds | 
B11 | binds | 
B12 | binds | 
B13 | binds | 
B14 | binds | 
B15 | binds | 
B16 | binds | 
B17 | binds | 
